US8247194 (Amgen, dated 2012)
Each block holds one binder with its values, some of them ahead of it.

What was measured:
[1] = target: T1, recombinant human GM-CSF (rhGM-CSF), produced in E. coli (human, UniProt P04141 18-144); test: cell-based or functional assay
[2] = target: T1, recombinant human GM-CSF (rhGM-CSF), …; test: SPR, purified SCA over rhGM-CSF coated chip, 1:1 Langmuir fit
Description: FIG. 36A, B: Kinetic binding analysis of SCA leads derived from the method of the invention, as determined by SPR. Binding kinetics (kd and ka) of the SCA leads were measured injecting 10 μL of purified protein in dilution series ranging from 10 μg/mL to 1 pg/mL purified SCA onto a rhGM-CSF coated sensor chip surface. The dissociation was monitored at 25° C. for 100 sec. Data were fitted using BIAevalution™ software determining the rate constant for dissociation (FIG. 36B) and association (FIG. 36A) kinetics. The residuals corresponding to the fitted data monitoring the deviation from the raw data indicated no systematic deviation for the fit.

[3] = target: T1, recombinant human GM-CSF (rhGM-CSF), …; test: SPR, rhGM-CSF coated chip, 1:1 Langmuir fit, analyte 116 nM
[4] = target: T1, recombinant human GM-CSF (rhGM-CSF), …; test: SPR, rhGM-CSF coated chip, 1:1 Langmuir fit, analyte 347 nM
[5] = target: T1, recombinant human GM-CSF (rhGM-CSF), …; test: SPR, rhGM-CSF coated chip, 1:1 Langmuir fit, analyte 1040 nM
[6] = target: T1, recombinant human GM-CSF (rhGM-CSF), …; test: SPR, rhGM-CSF coated chip, 1:1 Langmuir fit, analyte 12.8 nM
[7] = target: T1, recombinant human GM-CSF (rhGM-CSF), …; test: SPR, rhGM-CSF coated chip, 1:1 Langmuir fit, analyte 3120 nM
[8] = target: T1, recombinant human GM-CSF (rhGM-CSF), …; test: SPR, rhGM-CSF coated chip, 1:1 Langmuir fit, analyte 38.5 nM
[9] = target: T1, recombinant human GM-CSF (rhGM-CSF), …; test: SPR, rhGM-CSF coated chip, 1:1 Langmuir fit, analyte 3120 nM; analyte concentration 3120 nM
[10] = target: T1, recombinant human GM-CSF (rhGM-CSF), …; test: cell-based or functional assay; remark: listed apart in the source

T1 sequence (P04141 18-144 limits assumed): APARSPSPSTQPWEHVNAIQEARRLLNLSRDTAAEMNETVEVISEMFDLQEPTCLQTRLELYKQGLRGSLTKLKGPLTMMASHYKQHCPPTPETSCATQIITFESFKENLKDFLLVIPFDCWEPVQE

- half maximal inhibition constant (IC50), rhGM-CSF dependent proliferation of TF-1 cells [1]: 6 nM
- Kd [2]: 50 nM
- Ka [3]: 1.66e+08 M⁻¹
- Kd [3]: 6.01 nM
- koff [3]: 0.00464 s⁻¹
- kon [3]: 772000 M⁻¹ s⁻¹
- Ka [4]: 9.22e+07 M⁻¹
- Kd [4]: 10.8 nM
- koff [4]: 0.00477 s⁻¹
- kon [4]: 440000 M⁻¹ s⁻¹
- Ka [5]: 1.89e+07 M⁻¹
- Kd [5]: 52.8 nM
- koff [5]: 0.0046 s⁻¹
- kon [5]: 87100 M⁻¹ s⁻¹
- Ka [6]: 3.25e+08 M⁻¹
- Kd [6]: 3.07 nM
- koff [6]: 0.00384 s⁻¹
- kon [6]: 1.25e+06 M⁻¹ s⁻¹
- Ka [7]: 1.06e+07 M⁻¹
- koff [7]: 0.00514 s⁻¹
- kon [7]: 54300 M⁻¹ s⁻¹
- Ka [8]: 2.2e+08 M⁻¹
- Kd [8]: 4.55 nM
- koff [8]: 0.00444 s⁻¹
- kon [8]: 975000 M⁻¹ s⁻¹
- Kd [9]: 94.6 nM
B1: half-human SCA B32oN-45 (scFv)
scFv: ELQLVEQSGAALVKPGDSVKMSCKASGYPFTDYIVHWVKQSHGKSLDWIGYINPYSGDTKFNEKFKSKATLTVDKSSSTAYMEFSRLTSEDSAIYYCARSGLIAVYFDYWGQGTTVTVSSGGGGSGGGGSGGGGSELVMTQSPSSVSASVGDRVTIACRASQNIRNILNWYQQRPGKAPQLLIYAASNLQSGVPSRFSGSGSGTDFTLTINSLQPEDFATYYCQQSYSMPRTFGGGTKVEIKTGDYKDDDDKHHHHHH
notes: Expressed from pComb3H5BFlag/His, which adds the Flag-tag between the SCA and the His6-tag; As a lead it was purified by IMAC and gel filtration; also called maternal SCA B32oN-45

- IC50 (read off the curve), TF-1 proliferation, C33ON-32 dimer [10]: ~0.1 µg/mL
- IC50 (read off the curve), TF-1 proliferation, C33ON-32 mono [10]: ~0.2 µg/mL
B2: half-human SCA C33oN-32 (scFv)
scFv: ELQLVEQSGAALVKPGDSVKMSCKASGYPFTDYIVHWVKQSHGKSLDWIGYINPYSGDTKFNEKFKSKATLTVDKSSSTAYMEFSRLTSEDSAIYYCARSGLIAVYFDYWGQGTTVTVSSGGGGSGGGGSGGGGSELVLTQSPEFQSVAPKEKVTITCRASQSIGSSLHWYQQKPDQSPKLLIKFASQSFSGVPSRFGGSGSGTNFTLTINSLEAEDAATYYCQQSSTLPPTFGQGTKLEIKTGDYKDDDDKHHHHHH

- IC50 (read off the curve), TF-1 proliferation, C33ON-33 dimer [10]: ~0.2 µg/mL
- IC50 (read off the curve), TF-1 proliferation, C33ON-33 mono [10]: ~0.2 µg/mL
B3: half-human SCA C33oN-33 (scFv)
scFv: ELQLVEQSGAALVKPGDSVKMSCKASGYPFTDYIVHWVKQSHGKSLDWIGYINPYSGDTKFNEKFKSKATLTVDKSSSTAYMEFSRLTSEDSAIYYCARSGLIAVYFDYWGQGTTVTVSSGGGGSGGGGSGGGGSELVLTQSPDFQSVTPKEKVTITCRASQSIGSSLHWYQQKPDQSPKLLIKFASQSLSGVPSRFSGSGSGTDFTLTINSLEAEDAATYYCQQSYSTPSTFGPGTKVEIKTGDYKDDDDKHHHHHH
